# Experimental data reported in US20260000781A1 (CIDARA THERAPEUTICS, published 2026).
# B1: Oleclumab (antibody, V domains shown)
# VH: EVQLLESGGGLVQPGGSLRLSCAASGFTFSSYAYSWVRQAPGKGLEWVSAISGSGGRTYYADSVKGRFTISRDNSKNTLYLQMNSLRAEDTAVYYCARLGYGRVDEWGRGTLVTVSS
# VL: QSVLTQPPSASGTPGQRVTISCSGSLSNIGRNPVNWYQQLPGTAPKLLIYLDNLRLSGVPDRFSGSKSGTSASLAISGLQSEDEADYYCATWDDSHPGWTFGGGTKLTVL
# B2: Mupadolimab (antibody, V domains shown)
# VH: QVQLVQSGAEVEKPGASVKVSCKASGYTFTSYWITWVRQAPGQGLEWMGDIYPGSGNTNYNEKFKTRVTITADKSTSTAYMELSSLRSEDTAVYYCAKEGGLTTEDYALDYWGQGTLVTVSS
# VL: EIVLTQSPATLSLSPGERATLSCRASKNVSTSGYSYMHWYQQKPGQAPRLLIYLASNLESGIPPRFSGSGYGTDFTLTINNIESEDAAYYFCQHSRELPFTFGQGTKVEIK
# Columns and labels:
# [1] = biological target: T1, human CD73 expressed on cells (human, UniProt P21589 27-549); assay: cell-based or functional assay
# T1 sequence (looked up): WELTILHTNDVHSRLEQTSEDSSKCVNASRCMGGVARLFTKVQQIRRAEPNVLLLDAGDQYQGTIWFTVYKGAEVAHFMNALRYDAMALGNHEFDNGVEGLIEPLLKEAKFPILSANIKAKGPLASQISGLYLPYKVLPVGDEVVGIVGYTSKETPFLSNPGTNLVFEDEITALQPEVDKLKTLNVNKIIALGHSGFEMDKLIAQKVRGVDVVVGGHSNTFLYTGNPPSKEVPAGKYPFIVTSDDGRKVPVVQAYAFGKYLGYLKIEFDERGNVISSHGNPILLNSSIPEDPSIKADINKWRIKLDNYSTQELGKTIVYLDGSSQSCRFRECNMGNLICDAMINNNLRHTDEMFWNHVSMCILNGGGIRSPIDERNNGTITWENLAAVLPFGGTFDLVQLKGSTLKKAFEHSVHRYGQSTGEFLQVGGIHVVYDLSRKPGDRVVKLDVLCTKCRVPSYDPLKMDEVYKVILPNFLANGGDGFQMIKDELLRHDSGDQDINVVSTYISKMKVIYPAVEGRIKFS
# [2] = biological target: T1, human CD73 expressed on cells; assay: cell-based or functional assay; remark: listed apart in the source
# [3] = biological target: T2, mouse CD73 expressed on cells (mouse, UniProt Q61503 29-551); assay: cell-based or functional assay
# T2 sequence (looked up): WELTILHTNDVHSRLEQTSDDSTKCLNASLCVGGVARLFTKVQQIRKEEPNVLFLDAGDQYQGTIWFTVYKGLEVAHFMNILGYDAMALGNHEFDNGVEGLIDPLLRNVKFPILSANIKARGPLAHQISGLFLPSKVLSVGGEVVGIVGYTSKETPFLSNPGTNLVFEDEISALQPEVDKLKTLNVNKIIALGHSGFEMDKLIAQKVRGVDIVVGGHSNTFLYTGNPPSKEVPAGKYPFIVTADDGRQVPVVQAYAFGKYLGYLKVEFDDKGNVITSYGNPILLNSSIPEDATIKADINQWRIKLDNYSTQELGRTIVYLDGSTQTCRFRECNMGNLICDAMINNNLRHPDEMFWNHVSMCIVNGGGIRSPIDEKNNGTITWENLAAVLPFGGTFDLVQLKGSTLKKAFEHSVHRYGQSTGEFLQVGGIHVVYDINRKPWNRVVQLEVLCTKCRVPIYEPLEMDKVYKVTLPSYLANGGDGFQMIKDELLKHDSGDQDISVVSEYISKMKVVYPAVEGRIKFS
# [4] = biological target: T1, human CD73 expressed on cells; assay: cell-based or functional assay; remark: listed apart in the source
# [5] = biological target: T1, human CD73 expressed on cells; assay: cell-based or functional assay; remark: listed apart in the source
# [6] = biological target: T1, human CD73 expressed on cells; assay: cell-based or functional assay; remark: listed apart in the source
# [7] = biological target: T1, human CD73 expressed on cells; assay: cell-based or functional assay; remark: listed apart in the source
# [8] = biological target: T1, human CD73 expressed on cells; assay: cell-based or functional assay; remark: listed apart in the source
# [9] = biological target: T3, Enzymatically active His-tagged human CD73/NT5E protein (human, UniProt P21589 27-547); assay: SPR (Biacore 8K), His-tagged human CD73 captured by anti-His antibody, mAb as analyte
# T3 construct: Bought protein; also called human CD73/NT5E protein, His-tag (Acro Biosystems cat CD3-H52H7); not shown: His-tag
# T3 sequence (looked up): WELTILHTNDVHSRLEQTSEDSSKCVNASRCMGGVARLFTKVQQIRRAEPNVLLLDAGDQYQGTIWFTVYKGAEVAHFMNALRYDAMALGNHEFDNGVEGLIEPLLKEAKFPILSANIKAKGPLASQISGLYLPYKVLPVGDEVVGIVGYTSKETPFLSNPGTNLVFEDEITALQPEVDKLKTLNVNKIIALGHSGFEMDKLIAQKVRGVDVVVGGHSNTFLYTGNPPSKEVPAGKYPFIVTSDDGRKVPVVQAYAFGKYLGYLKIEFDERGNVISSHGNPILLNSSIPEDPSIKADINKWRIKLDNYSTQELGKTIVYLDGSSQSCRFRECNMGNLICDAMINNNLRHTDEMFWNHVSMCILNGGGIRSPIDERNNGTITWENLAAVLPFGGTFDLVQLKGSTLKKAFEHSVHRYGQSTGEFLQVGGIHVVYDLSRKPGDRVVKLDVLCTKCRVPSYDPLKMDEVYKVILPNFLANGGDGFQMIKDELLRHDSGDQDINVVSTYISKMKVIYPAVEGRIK
# [10] = biological target: T1, human CD73 expressed on cells; assay: cell-based or functional assay; remark: listed apart in the source
# [11] = biological target: T1, human CD73 expressed on cells; assay: cell-based or functional assay; remark: listed apart in the source
# [12] = biological target: T2, mouse CD73 expressed on cells; assay: cell-based or functional assay; remark: listed apart in the source
binder,measurement,setting,value
B1,"Cell internalization EC50 (nM), Fab-ZAP saporin assay, MDA-MB-231",[1],0.02 nM
same,"CD73 inhibition, human PBMCs, 3 h IC50 [nM]",[2],0.56 nM
same,"CD73 inhibition, human PBMCs, 24 h IC50 [nM]",[2],> 100 nM
same,"CD73 inhibition, mouse 4T1 cells, 3 h IC50 [nM]",[3],> 100 nM
same,"CD73 inhibition, mouse 4T1 cells, 24 h IC50 [nM]",[3],> 100 nM
same,"inhibition of adenosine production (AMP conversion by CellTiter-Glo), human PBMCs, EC50 [nM]",[4],288 nM
same,cell-based CD73 enzyme inhibition IC50 (MDA-MB-231 cells),[5],0.11 nM
same,"Cell-based CD73 inhibition IC50 (nM), MDA-MB-231 cells",[6],0.67 nM
same,"PBMC activation, CD4+CD25+ EC50 [nM] (median, n = 3)",[7],> 1000 nM
same,"PBMC activation, CD8+CD25+ EC50 [nM] (median, n = 3)",[7],> 1000 nM
same,"PBMC activation, CD8+Granzyme B+ EC50 [nM] (median, n = 3)",[7],> 1000 nM
same,"PBMC activation, CD8+CD25+ EC50 [nM]",[8],> 1000 nM
same,"PBMC activation, CD8+granzyme B+ EC50 [nM]",[8],> 1000 nM
same,Kd,[9],0.527 nM
same,"PBMC activation (CD25+), 30 µM AMP EC50 [nM]",[10],> 1000 nM
same,"CD73 inhibition, human PBMCs, 3 h median IC50 [nM]",[11],7.26 nM
same,"CD73 inhibition, human PBMCs, 24 h median IC50 [nM]",[11],89.4 nM
same,"CD73 inhibition, mouse EMT6 cells, 3 h IC50 [nM]",[12],5.68 nM
same,"CD73 inhibition, mouse EMT6 cells, 24 h IC50 [nM]",[12],> 100 nM
B2,"CD73 inhibition, mouse 4T1 cells, 3 h IC50 [nM]",[3],> 100 nM
same,"CD73 inhibition, mouse 4T1 cells, 24 h IC50 [nM]",[3],> 100 nM
same,Kd,[9],123 nM
same,"CD73 inhibition, mouse EMT6 cells, 3 h IC50 [nM]",[12],> 100 nM
same,"CD73 inhibition, mouse EMT6 cells, 24 h IC50 [nM]",[12],> 100 nM
